± gives the uncertainty stated by the source.
Assay: self-splicing fitness, log relative to wild type (ln ratio); higher = more splicing; Tetrahymena group I intron in knt gene, E. coli kanamycin selection, DiMSum; sequences stand for … in CUCUCU…GGAGGGAAAAGUUAUCAGGCAUGCACCUGGUAGCUAGUCUUUAAACCAAUAGAUUGCAUCGGUUUAAAAGGCAAGACCGUCAAAUUGCGGGAAAGGGGUCAACAGCCGUUCAGUACCAAGUCUCAGGGGAAACUUUGAGAUGGCCUUGCAAAGGGUAUGGUAAUAAGCUGACGGACAUGGUCCUAACCACGCAGCCAAGUCCUAAGUCAACAGAUCUUCUGUUGAUAUGGAUGCAGUUCACAGACUAAAUGUCGGUCGGGGAAGAUGUAUUCUUCUCAUAAGAUAUAGUCGGACCUCUCCUUAAUGGGAGCUAGCGGAUGAAGUGAUGCAACACUGGAGCCGCUGGGAACUAAUUUGUAUGCGAAAGUAUAUUGAUUAGUUUUGGAGUACUCGUGGUCG
Outline: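 Fitness was computed with DiMSum as the error-weighted combination of replicate fold changes, kanamycin versus none, each normalised to wild type. The library randomised all eight intron nucleotides of the P1ex region, with the intron placed in the knt kanamycin-resistance gene on pET-22b(+) in E. coli BL21(DE3). Six replicate transformations were grown overnight at 37°C or 30°C on LB agar with or without 25 μg/mL kanamycin, plus 100 μg/mL carbenicillin, 50 μM IPTG and 0.2% rhamnose. Pooled colonies were amplicon-sequenced on an Illumina HiSeq 2500.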

| Sequence | self-splicing fitness (ln) (30 °C) | self-splicing fitness (ln) (37 °C) |
| --- | --- | --- |
| CAUUAGCAAUAUUACGCGAU | -3.83 ± 0.32 | -1.52 ± 0.23 |
| GGCCAGCAAUAUUACGUGUG | -1.15 ± 0.051 | -0.323 ± 0.066 |
| GAUGAGCAAUAUUACGUCGA | -3.33 ± 0.35 | -2.68 ± 0.3 |
| GUUUAGCAAUAUUACGUACU | -0.0508 ± 0.3 | 0.333 ± 0.33 |
| UGGUAGCAAUAUUACGAUGG | -2.44 ± 0.15 | -1.1 ± 0.17 |
| AGGUAGCAAUAUUACGGGUG | -3.141 ± 0.021 | -1.99 ± 0.036 |
| CCCAAGCAAUAUUACGCUAC | -4.17 ± 0.39 | -3.04 ± 0.38 |
| UAUCAGCAAUAUUACGUAGG | -2.1 ± 0.097 | -1.09 ± 0.088 |
| UAGGAGCAAUAUUACGAAUA | -1.13 ± 0.41 |  |
| GAAAAGCAAUAUUACGCACU | -0.498 ± 0.098 | 0.475 ± 0.1 |
| GGUUAGCAAUAUUACGUCAG | -3.16 ± 0.47 |  |
| UCUGAGCAAUAUUACGGAUU | -3.51 ± 0.26 | -1.72 ± 0.23 |
| GCCGAGCAAUAUUACGGUUC | -4.42 ± 0.3 | -1.79 ± 0.26 |
| CAACAGCAAUAUUACGACGU | -0.776 ± 0.042 | -0.12 ± 0.054 |
| GAUAAGCAAUAUUACGACAC | -0.403 ± 0.12 | 0.0901 ± 0.16 |
| AUGUAGCAAUAUUACGGUGU | -3.04 ± 0.16 | -0.843 ± 0.1 |
| GGACAGCAAUAUUACGCAAA | -1.19 ± 0.13 | -0.67 ± 0.12 |
| ACGAAGCAAUAUUACGACAU | -0.681 ± 0.011 | -0.109 ± 0.032 |
| UCCGAGCAAUAUUACGGAUG | -4.09 ± 0.35 | -1.77 ± 0.2 |
| GAUAAGCAAUAUUACGUACA | -0.491 ± 0.15 | -0.262 ± 0.16 |
| UGUGAGCAAUAUUACGUGAU | -5.21 ± 0.36 |  |
| AAUCAGCAAUAUUACGCCUU | 0.109 ± 0.082 | 0.0213 ± 0.1 |
| CAUCAGCAAUAUUACGGUCG | 0.0182 ± 0.075 | 0.236 ± 0.093 |
| CGGUAGCAAUAUUACGGGUC | -4.51 ± 0.46 | -4.33 ± 0.39 |
| CUCCAGCAAUAUUACGCUCC | -2.73 ± 0.3 |  |

| Sequence | self-splicing fitness (ln) (30 °C) | self-splicing fitness (ln) (37 °C) |
| --- | --- | --- |
| GCAUAGCAAUAUUACGCUUA | -1.6 ± 0.14 | -1.18 ± 0.1 |
| GACUAGCAAUAUUACGGGCC |  | -2.46 ± 0.41 |
| GUAAAGCAAUAUUACGUCCC | -1.07 ± 0.19 | 0.449 ± 0.26 |
| AGUAAGCAAUAUUACGCUUU | -3.63 ± 0.26 | -2.36 ± 0.22 |
| GGGCAGCAAUAUUACGACUC | 0.392 ± 0.12 | 0.247 ± 0.17 |
| CUAUAGCAAUAUUACGCCCA | -3.06 ± 0.37 | -1.7 ± 0.43 |
| CGUUAGCAAUAUUACGGUCA | -0.526 ± 0.14 | -0.197 ± 0.14 |
| GGGAAGCAAUAUUACGUUCU | -3.66 ± 0.22 | -3.52 ± 0.25 |
| ACCAAGCAAUAUUACGGGCC | -2.26 ± 0.085 | -2.07 ± 0.096 |
| GUCAAGCAAUAUUACGUUAC | -3.02 ± 0.17 | -2.96 ± 0.17 |
| GACCAGCAAUAUUACGUCGA | -1.44 ± 0.078 | -0.592 ± 0.078 |
| GUACAGCAAUAUUACGCCGG | -3.87 ± 0.39 | -2.45 ± 0.24 |
| ACCAAGCAAUAUUACGCUUA | -1.86 ± 0.11 | -1.08 ± 0.11 |
| UUGAAGCAAUAUUACGCAUG | -0.179 ± 0.12 | -0.519 ± 0.11 |
| GUCAAGCAAUAUUACGUACA | -3.13 ± 0.14 | -1.73 ± 0.098 |
| AAGUAGCAAUAUUACGUGCA | -0.781 ± 0.074 | -0.196 ± 0.098 |
| CCCUAGCAAUAUUACGUUCC | -2.3 ± 0.22 | -2.11 ± 0.24 |
| AAACAGCAAUAUUACGCUCC | -1.21 ± 0.14 | -0.165 ± 0.13 |
| CGGAAGCAAUAUUACGUUCG | -2.69 ± 0.18 | -2.29 ± 0.34 |
| UAUCAGCAAUAUUACGUAUG | -0.321 ± 0.042 | 0.475 ± 0.058 |
| GUCUAGCAAUAUUACGUAUU | -0.645 ± 0.086 | -0.635 ± 0.095 |
| CACUAGCAAUAUUACGACUG | -0.3 ± 0.053 | -0.0818 ± 0.071 |
| CCUAAGCAAUAUUACGCCGA | -0.993 ± 0.49 | -1.98 ± 0.37 |
| UUUUAGCAAUAUUACGCACA | -0.201 ± 0.21 | -0.107 ± 0.19 |
| CCGGAGCAAUAUUACGAUUA | -3.79 ± 0.37 | -1.17 ± 0.3 |

| Sequence | self-splicing fitness (ln) (30 °C) | self-splicing fitness (ln) (37 °C) |
| --- | --- | --- |
| UUAAAGCAAUAUUACGCGUU | -2.44 ± 0.12 | -1.49 ± 0.13 |
| ACCGAGCAAUAUUACGACAC | -3.48 ± 0.38 | -1.73 ± 0.26 |
| ACCUAGCAAUAUUACGGUGC | -1.87 ± 0.074 | -0.926 ± 0.092 |
| ACGCAGCAAUAUUACGAGCU | -2.76 ± 0.12 | -1.18 ± 0.12 |
| CCGAAGCAAUAUUACGAAGU | -3.15 ± 0.19 | -2.8 ± 0.29 |
| GUCUAGCAAUAUUACGGGUG | -1.28 ± 0.05 | -0.553 ± 0.058 |
| UGGCAGCAAUAUUACGAAUC | -2.3 ± 0.25 |  |
| GAGCAGCAAUAUUACGCAGG | -2.08 ± 0.13 | -2.55 ± 0.19 |
| UUAGAGCAAUAUUACGAGCC | -0.789 ± 0.47 |  |
| UUCCAGCAAUAUUACGUCAC | -2.79 ± 0.18 | -3.15 ± 0.29 |
| CGUUAGCAAUAUUACGAGGU | -4.3 ± 0.29 | -2.49 ± 0.23 |
| AUAAAGCAAUAUUACGCACG | -0.375 ± 0.083 | -0.0827 ± 0.11 |
| CGCCAGCAAUAUUACGAUCU | -2.5 ± 0.26 | -2.42 ± 0.35 |
| UCCGAGCAAUAUUACGAUUA | -1.94 ± 0.28 | -1.72 ± 0.26 |
| UUCUAGCAAUAUUACGUGUA | -1.26 ± 0.08 | -0.8 ± 0.094 |
| UAAUAGCAAUAUUACGUGCC | -3.27 ± 0.43 | -1.47 ± 0.31 |
| UAUGAGCAAUAUUACGUUCG | -1.45 ± 0.091 | -0.169 ± 0.12 |
| CGUUAGCAAUAUUACGGAUG | -1.85 ± 0.11 | -1.37 ± 0.14 |
| UAGCAGCAAUAUUACGAUGU | -3.82 ± 0.21 | -2.5 ± 0.2 |
| GGGUAGCAAUAUUACGGCUU | -0.41 ± 0.11 | 0.232 ± 0.12 |
| UGCAAGCAAUAUUACGAUAG | -1.09 ± 0.067 | -0.0803 ± 0.085 |
| GAGAAGCAAUAUUACGUGUA | -2.8 ± 0.15 | -1.41 ± 0.13 |
| CGCUAGCAAUAUUACGCUAC |  | -2.29 ± 0.5 |
| CCUCAGCAAUAUUACGGGUG | -2.04 ± 0.06 | -0.955 ± 0.07 |
| CCCGAGCAAUAUUACGUACA | -2.87 ± 0.19 | -2.25 ± 0.24 |

| Sequence | self-splicing fitness (ln) (30 °C) | self-splicing fitness (ln) (37 °C) |
| --- | --- | --- |
| GCAAAGCAAUAUUACGGUGA | -0.987 ± 0.079 | 0.221 ± 0.098 |
| CUCAAGCAAUAUUACGCGUA | -3.49 ± 0.22 | -1.78 ± 0.15 |
| GUCAAGCAAUAUUACGGAAA | -2.28 ± 0.14 | -1.72 ± 0.12 |
| AAAGAGCAAUAUUACGUACU | -1.21 ± 0.14 | -0.952 ± 0.15 |
| AUGUAGCAAUAUUACGUUCC | -1.92 ± 0.12 | -0.942 ± 0.17 |
| ACAUAGCAAUAUUACGCAUU | -3.32 ± 0.11 | -2.46 ± 0.13 |
| GAUUAGCAAUAUUACGGUAA | -1.83 ± 0.23 | -1.5 ± 0.17 |
| UGUAAGCAAUAUUACGAAUU | -2.57 ± 0.25 | -1.64 ± 0.19 |
| ACAUAGCAAUAUUACGACCC | -0.944 ± 0.36 | -0.798 ± 0.32 |
| GUCAAGCAAUAUUACGACAA | -3.81 ± 0.4 | -2.58 ± 0.27 |
| GCAAAGCAAUAUUACGCAGG | -2.33 ± 0.13 | -2.02 ± 0.19 |
| AAUCAGCAAUAUUACGCUUU | -0.193 ± 0.067 | 0.378 ± 0.1 |
| GGUGAGCAAUAUUACGGCCG | -1.15 ± 0.38 | -2.11 ± 0.24 |
| CUGGAGCAAUAUUACGAAGU | -2.22 ± 0.37 | -2.38 ± 0.43 |
| CGAAAGCAAUAUUACGGCCC | -1.42 ± 0.19 | -0.196 ± 0.35 |
| AGGCAGCAAUAUUACGUAGA | -2.33 ± 0.15 | -0.171 ± 0.11 |
| AUCAAGCAAUAUUACGAAUG | -3.16 ± 0.13 | -0.57 ± 0.1 |
| UAACAGCAAUAUUACGAAAC | -4.62 ± 0.38 | -2.75 ± 0.36 |
| UCCGAGCAAUAUUACGGCAA | -1.43 ± 0.11 | -0.233 ± 0.13 |
| AUCAAGCAAUAUUACGUCUU | -1.86 ± 0.072 | -0.301 ± 0.073 |
| CUGGAGCAAUAUUACGUACG | -0.531 ± 0.089 | 0.504 ± 0.12 |
| GCAGAGCAAUAUUACGUUCG | -1.91 ± 0.14 | -1.99 ± 0.3 |
